From patent US20220380473A1, “ANTI-GAL3 ANTIBODIES AND USES THEREOF” (TrueBinding, Inc., priority 2019, published 2022)

Test system: STAM HFD-CDAA mouse model of liver fibrosis
Experiment: STAM CDAA-HFD mouse model of liver fibrosis
Type: in vivo
Description: To confirm that the observed reduction of liver fibrosis in the MCD mouse model was not unique to this setting, the activity of mIMT001 was explored in the STAM HFD-CDAA mouse model of liver fibrosis. Briefly, Two-day-old male C57Bl/6 mice were injected by a single subcutaneous injection of 200 ug of streptozotocin to cause islet destruction and then fed CDAA-high fat diet (Research Diet #A06071302) starting at 4 weeks of age and continuing for the entire duration of each study. At 8 weeks of age, mice were divided into two groups (seven mice each) based on ALT score. Mice were treated human anti-mIgG4 isotype control (hIgG4, 10 mg/kg) or human anti-Gal3 antibody (IMT001-4, 10 mg/kg) twice a week by intraperitoneal injection for 4 weeks. All animal care and procedures were approved by the Immutics IACUC.

B1: IMT001: anti-Gal3 monoclonal antibody (Immutics); printed as mIMT001 (IMT001), murine (antibody, V domains shown)
VH: QIQLVQSGPELKKPGETVKISCKASGYTFTNYGMNWVKQAPGKGLKWMGWINTNTGEPTYVEEFKGRFAFSLETSASTAYLQINNLKNEDTATYFCAPYDNFFAYWGQGTLVTVSA
VL: DIVITQDELSNPVTSGESVSISCRSSKSLLYKDGKTYLNWFLQRPGQSPQLLIYLMSTHASGVSDRFSGSGSGTDFTLEISRVKAEDVGVYYCQQLVDYPLTFGAGTKLELK
% area picosirius red staining (liver, 10 mg/kg twice a week i.p. for 4 weeks): 1.66%
reduction of picosirius red staining (vs isotype control): 67%
